Reference: publication PMC5605669 (2017)

B1: APOBEC3G, wild type [human] / itself (parent complex)
chain: MKPHFRNTVERMYRDTFSYNFYNRPILSRRNTVWLCYEVKTKGPSRPPLDAKIFRGQVYSELKYHPEMRFFHWFSKWRKLHRDQEYEVTWYISWSPCTKCTRDMATFLAEDPKVTLTIFVARLYYFWDPDYQEALRSLCQKRDGPRATMKIMNYDEFQHCWSKFVYSQRELFEPWNNLPKYYILLHIMLGEILRHSMDPPTFTFNFNNEPWVRGRHETYLCYEVERMHNDTWVLLNQRRGFLCNQAPHKHGFLEGRHAELCFLDVIPFWKLDLDQDYRVTCFTSWSPCFSCAQEMAKFISKNKHVSLCIFTARIYDDQGRCQEGLRTLAEAGAKISIMTYSEFKHCWDTFVDHQGCPFQPWDGLDEHSQDLSGRLRAILQNQEN

Variants of: B1
Assay: single-molecule ssDNA binding curves fit with two-step binding model (k2 from k slow); parent: 0.007; read off a plot

Variant | screen value
chain 1 R313A, chain 1 D316A, chain 1 D317A, chain 1 Q318A | ~0.0057 s⁻¹
chain 1 I314A, chain 1 Y315A | ~0.0066 s⁻¹
